Measured values published in the nanobody polyreactivity screen of Harvey et al. (2022).

Test: yeast display, Sf9 membrane polyspecificity reagent, FACS + sequencing; frameworks hold sequencing errors
Method in brief: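 Galactose-induced (36–48 hours) yeast carrying a synthetic nanobody display library were exposed to 10% biotinylated, detergent-solubilized Sf9 membrane reagent at 4 °C for 1 hour. FACS followed streptavidin microbead enrichment, using low and high (top ~1%) gates for expression (anti-HA) and reagent binding (streptavidin). Colony PCR, MiSeq 2 × 250 sequencing and CDR-length filtering followed. Labels for polyreactivity reflect the gate of origin.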

Sequence	polyreactivity (PSR sort gate)
QVQLVESGGGLVQAGGSLRLSCAASGRTFRLYAMGWYRQAPGKERELVAAITRGGRTNYADSVKGRFTISRDNAKNTVYLQMNSLNPEDTAVYYCAARYVERHTDYYYWGQGTQVTVSS	low polyreactivity
QVQLVESGGGLVQAGGSLRLSCAASGRTFRLYAMGWYRQAPGKERELVASISRSVGSTYYADSVKGRFTISRDNAKNTVYLQMNSLKPEDTAVYYCAARSYIPGGWDGAYYYWGQGTQVTVSS	high polyreactivity
QVQLVESGGGLVQAGGSLRLSCAASGRTFRLYAMGWYRQATGTETELVAAISSRGGSTYYADSVKGRFTISRDNAKNTVYLQMNSLKPEDTAVYYCAKGLGSGQEIYGYDYWGQGTQVTVSS	high polyreactivity
QVQLVESGGGLVQAGGSLRLSCAASGRTFRNAMGWYRQAPGKEREFVATITWSGGSTYYADSVKGRFTISRDNAKNTVYLQMNSLKPEDTAVYYCAAEGRLWDWQRYDYWGQGTQVTVSS	low polyreactivity
QVQLVESGGGLVQAGGSLRLSCAASGRTFRNAMGWYRQEPVKEREFVATITWSGGSTYYADSVKGRFTISRDNAKNTVYLQMNSLKPEDTAVYYCAAEGRLWDWQRYDYWGQGTQVTVSS	low polyreactivity
QVQLVESGGGLVQAGGSLRLSCAASGRTFRPNAMGWYRQAPGKERELVASITRRGGTTYYADSVKGRFTISRDNAKNTVYLQMYSLKPEDSAVYYCNAPPGYSSTRNGYWGQGTQVTVSS	high polyreactivity
QVQLVESGGGLVQAGGSLRLSCAASGRTFRPYAMGWYRQAPGKEREFVARITWSGGTTYYADSVKGRFTISRDNAKNTVYLQMNSLKPEDTAVYYCAARVSRQTPLISYNYWGQGTQVTVSS	low polyreactivity
QVQLVESGGGLVQAGGSLRLSCAASGRTFRPYAMGWYRQAPGKERELVAAIDSSGTSTYYADSVKGRFTISRDNAKNTVYLQMNSLKPEDTAVYYCNTSLKRRRLRFNYWGQGTQVTVSS	low polyreactivity
QVQLVESGGGLVQAGGSLRLSCAASGRTFRPYAMGWYRQAPGKERELVAVITSGDSTSYADSVKGRFTISRDNAKNTVYLQMNSLKPEDTAVYYCAADSYSGYNYWGQGTQVTVSS	low polyreactivity
QVQLVESGGGLVQAGGSLRLSCAASGRTFRQYAMGWYRQAPGKERELVAAISSSGGRTYYADSVKGRFTISRDNAKNTVYLQMNSLKPEDTAVYYCNAARYSYCFDSWGQGTQVTVSS	high polyreactivity
QVQLVESGGGLVQAGGSLRLSCAASGRTFRQYAMGWYRQAPGKERELVATISGGGGNTYYADSVKGRFTISRDNAKNTVYLQMNSLKPEDTAVYYCAARRRDRPVRGYDYWGQGTQVTVSS	high polyreactivity
QVQLVESGGGLVQAGGSLRLSCAASGRTFRRNAMAWYRKAPGKERELVAAISGGGSTNYADSVKGRFTISRDNAKNTVYLQMNSLKPEDTAVYYCNKRGTIWSGFWGQGTQVTVSS	high polyreactivity
QVQLVESGGGLVQAGGSLRLSCAASGRTFRRNAMGSYRQAPGKERELVATITGGGTNYADSVKGRFTISRDNAKNTVYLQMNSLKPEDTAVYYCAVGTRFYVPRRFDYWGQGTQVTVSS	high polyreactivity
QVQLVESGGGLVQAGGSLRLSCAASGRTFRRNAMGWYRQAPGKERELVAAIRWSSGSTYYADSVKRRFTISRDNAKNTVYLQMNSLKPEDTAVYYCAKRQWGGRESFDYWAQGTQVTVSS	low polyreactivity
QVQLVESGGGLVQAGGSLRLSCAASGRTFRRNAMGWYRQAPGKERELVAAITRSGGSTYYADSVKGRFTISRDNAKNTVYLQMNSLKPEDTAVYYCAAGTYVGLKTQYDYWGQGTQVTVSS	high polyreactivity
QVQLVESGGGLVQAGGSLRLSCAASGRTFRRNAMGWYRQAPGKERELVADISNGDSTKYADSVKGRFTISRDNAKNTVYLHMNRLKPVDTAVYYCNAQRYRVVVYNSHGWQTRNYWGQGTQVTVSS	low polyreactivity
QVQLVESGGGLVQAGGSLRLSCAASGRTFRRYAMGWSRQAPGKERELVATISSGGSTNYADSVKGRFTISRDNAKNTVYLQMNSLKPEDTAVYYCKARGRSTVTYGYWGQGTQVTVSS	high polyreactivity
QVQLVESGGGLVQAGGSLRLSCAASGRTFRRYAMGWYRQAPGKERELVAAISFGGRTYYADSVKGRFTISRDNAKNTVYLQMNSLKPEDTAVYYCAVRSYDQLIVPRDYWGQGTQVTVSS	high polyreactivity
QVQLVESGGGLVQAGGSLRLSCAASGRTFRRYAMGWYRQAPGKERELVAAISRNGGSTYYADSVKGRFTISRDNAKNTVYLQMNSLKPEDTAVYYCNAVTYGSYYYWGQGTQVTVSS	high polyreactivity
QVQLVESGGGLVQAGGSLRLSCAASGRTFRRYAMGWYRQAPGKERELVAGISRSGVSSYYADSVKGRFTISRDNAKNTVYLQMNSLKPEDTAVYYCATRYVPTLRSSGDYWGQGTQVTVSS	high polyreactivity
QVQLVESGGGLVQAGGSLRLSCAASGRTFRRYAMGWYRQAPGKERELVATITNAGSTYYADSVKGRFTISRDNAKNTVYLQMNSLKPEDTAVYYCAARVPYISDYWGQGTQVTVSS	low polyreactivity

Sequence	polyreactivity (PSR sort gate)
QVQLVESGGGLVQAGGSLRLSCAASGRTFRRYAMGWYRQAPGKERELVATITNAGSTYYADSVKGRFTISSDNAKNTVYLQMNSLKPEDTSVYYCAARVPYKSDYWGQGTQVTVSS	low polyreactivity
QVQLVESGGGLVQAGGSLRLSCAASGRTFRRYAMGWYRQAPGKERELVATITSNGGSTYYADSVKGRFTISRDNAKNTVYLQMNSLKPEDTAVYYCARDLTYYRSRYDYWGQGTQVTVSS	high polyreactivity
QVQLVESGGGLVQAGGSLRLSCAASGRTFRRYTMGWYTQAPGKVRELVAAITTSGGSTYYADSVKGRFTISRDNAKHTVYLQMNSLKPEDTAVYYCAATRRYSGDFWGQGTQVTVSS	high polyreactivity
QVQLVESGGGLVQAGGSLRLSCAASGRTFRRYVMGGYRQAPGKERELVATITSGGRTNYADSVKGRFTISRDNAKNTVYLQMNSLKPEDTAVYYCNAVRIGLRYYYWGQGTQVTVSS	low polyreactivity
QVQLVESGGGLVQAGGSLRLSCAASGRTFRRYVMGWYRQAPGKERELVAAIRWTGGSTYYADSVKGRFTISRDIAKNTVYLQMNSLKPEDTAVYYWAASSYICYGYWGQGTQVTVSS	high polyreactivity
QVQLVESGGGLVQAGGSLRLSCAASGRTFRSNAMGWYRQAPGKERELVAAISKGGDRTYYADSVKGRFTISRDNAKNNVYLHMNSLKPEDTAVYYCAARYTPSRYYYWGQGTQVTVSS	high polyreactivity
QVQLVESGGGLVQAGGSLRLSCAASGRTFRSYAMGWYRQAPGKDRELVAAISYGGGRTFYADSVKGRFTISRDNEKNTVYLQMNSLKPEDTAVYYCNAAFPRSYRFDYWGQGTQLTVSS	high polyreactivity
QVQLVESGGGLVQAGGSLRLSCAASGRTFRSYAMGWYRQAPGKEREFVAAISRSGASTRYADSVKGRFTISRDNAKNTVYLQMNSLKPEDTAVYYCAAVWPDVRGYDYWGQGTQVTVSS	high polyreactivity
QVQLVESGGGLVQAGGSLRLSCAASGRTFRSYAMGWYRQAPGKERELVAAITSGGSTYYADSVKGRFTISRDNAKNTVYLQMNSLKPEDTAVYYCARGDHVGSAGYDYWGQGTQVTVSS	low polyreactivity
QVQLVESGGGLVQAGGSLRLSCAASGRTFRSYAMGWYRQAPGKERELVAGISYNGGSTYYADSVKGRFTISRDNAKNTVYLQMNSLKPEDTAVYYCAATDHYRLYDYWGLGTQVTVSS	low polyreactivity
QVQLVESGGGLVQAGGSLRLSCAASGRTFRSYAMGWYRQAPGKERELVAVISSDGSTYYADSVKGRFTISRDNAKNTVYLQMNSLKPEDTAVYYCAAEYTFEEIGGVEFDYWGQGTQVTVSS	low polyreactivity
QVQLVESGGGLVQAGGSLRLSCAASGRTFRSYVMGWYRQAPGKERELVAAITRSGGSTYYADSVKGRFTISRDNAKNTVYLQMNSLKPEDTAVYYCATDRWYYYPDYYPYGEYDYWGQGTQVTVSS	low polyreactivity
QVQLVESGGGLVQAGGSLRLSCAASGRTFRTYTMGWYRQAPGKEREFVAAITSSGASTYYADSVKGRFTISRDNAKNTVYLEMNSLKPEDTAVYYCAARYGRRLVWVPALLYDYWGQGTQVTVSS	high polyreactivity
QVQLVESGGGLVQAGGSLRLSCAASGRTFRTYTMGWYRQAPGKERELVAAIRSIDGITYYADSVKGRFTISRDNAKTTVDLPKNSLKPEDTAVYYCAARYTASKPMGYWGQGTQVTVSS	high polyreactivity
QVQLVESGGGLVQAGGSLRLSCAASGRTFRTYVMGWYRQAPGKEREFVAGITWSSGSTRYADSVKGRFTISRDNAKNTVYLQMNSLKPEDTAVYYCAASRVHSYNPGYPRYYYWGQGTQVTVSS	high polyreactivity
QVQLVESGGGLVQAGGSLRLSCAASGRTFRVNAMGWYRQAPGKERELVAAITWNGGSTYYADSVKGRFTISRDNAKNTVYLQMNSLKPEDTAVYYCAAKGARYTSRGYYWGQGTQVTVSS	high polyreactivity
QVQLVESGGGLVQAGGSLRLSCAASGRTFRVYAIGWYRQAPGKEREFVATISVRGGSTYYADSVKGRFTISRDNAKNNVYLQMNSLKPEDTAVYFCAADSYPYVYALYDYWGQGTQVTVSS	low polyreactivity
QVQLVESGGGLVQAGGSLRLSCAASGRTFRVYAMGWYRQAPGKERELVAAIRTDDSTNYADSVKGRFTISRDNAKNTVYLQMNSLKPEDTAVYYCNAEGQFTWLGRRRHKFEYWGQGTQVTVSS	low polyreactivity
QVQLVESGGGLVQAGGSLRLSCAASGRTFRVYVMGWYRQAPGKERELVAAIRSDASTNYADSVKGRFTISRDNAKNTVYLQMISLKPEDTAFYYCAARRGKSAGGYGDYYWGQGTQVTVSS	high polyreactivity
QVQLVESGGGLVQAGGSLRLSCAASGRTFRWNAMGWYRQAPGKERELVARISWRGGSTYYADSVKGRFTISRDNAKNTVYLQMNSLKPEDTAVYYCAATSPYYRTGYDYWGQGTQVTVSS	high polyreactivity
